Measured values as given in patent US12673971B2, “Amyloid-β aggregation inhibitor, pharmaceutical composition foramyloid-β aggregation disease, and use application of same” (O-FORCE CO., LTD, priority 2020, dated 2026).

Tests used:
[1] = target: T1, Aβ25-35 (Homo sapiens, UniProt P05067); test: Aggregation inhibition assay (thioflavin T fluorescence); type: biochemical; conditions: 0.1 mM peptide, 0.1 mM Aβ25-35, 0.1 mM ThT, Tris-HCl pH 7.5, 37° C., FIG. 1; for fluorescence intensity of the reaction solution after 8 and 24 hours: vs negative control; for fluorescence intensity of the reaction solution 4 hours after incubation: vs negative control (Aβ25-35 only)
T1 construct: The Aβ25-35 is a peptide constituted by 11 amino acid residues consisting of the 25th to 35th amino acid residues
Excerpt: An Aβ-derived fragment peptide was used for aggregation of Aβ. Aβ25-35, which has high aggregability, was selected as the fragment peptide. The Aβ25-35 is a peptide constituted by 11 amino acid residues consisting of the 25th to 35th amino acid residues in the full length sequence of human-derived Aβ (GSNKGAIIGLM (SEQ ID NO: 4), hereinafter also referred to as Ab25-35).
The fluorescent dye thioflavin T (ThT) binds to Ab aggregates and emits strong fluorescence upon binding, and thus the increase or inhibition of aggregation can be determined by measuring the fluorescence intensity. Thus, the inhibition of aggregation of Aβ25-35 by Peptide 1 (GSGNR (SEQ ID NO: 1)) and Peptide 2 (GSGFK (SEQ ID NO: 2)) was checked using ThT.
Specifically, a reaction solution with the following composition was prepared and dispensed into wells such that the amount of the reaction solution per well was 300 μL, and incubated at 37° C., and the change in fluorescence intensity over time was measured using a measurement device (product name Cytation5, manufactured by BioTek) (n=3). The measurement wavelengths were set such that the excitation wavelength (ex) was 444 nm and the emission wavelength (em) was 480 nm. As a control, a reaction solution to which water was added instead of Peptide 1 and Peptide 2 was also measured in the same way.

[2] = target: T1, Aβ25-35; test: Concentration assay (ThT fluorescence, varied final peptide concentration); type: biochemical; conditions: for fluorescence intensity compared with the negative control: 37° C.
Method: The concentrations of Peptide 1 (GSGNR (SEQ ID NO: 1)) and Peptide 2 (GSGFK (SEQ ID NO: 2)) with respect to Aβ25-35 were checked. Unless otherwise indicated, measurements were performed according to (2) above.
First, as for Peptide 2 (GSGFK (SEQ ID NO: 2)), 200 μL of mixed solution with the composition shown in Table 2 below was added per well, 10 μL of 2 mmol/L ThT was further added to the well immediately before measurement, and this reaction solution was incubated at 37° C. The change in fluorescence intensity 4 hours after the start of measurement was measured using the above-mentioned measurement device (n=3). Furthermore, reaction solutions with the following composition but with different final concentrations of Peptide 2 were also measured in the same way. As a negative control, a reaction solution with the following composition to which neither Peptides 1 nor 2 was added was also measured in the same way.
Next, as for Peptide 1 (GSGNR (SEQ ID NO: 1)), 200 μL of mixed solution with the composition shown in Table 2 above was added per well, 10 μL of 2 mmol/L ThT was further added to the well immediately before measurement, and this reaction solution was incubated at 37° C. The change in fluorescence intensity 8 hours after the start of measurement was measured using the above-mentioned measurement device (n=6). Furthermore, reaction solutions with the composition above but with different final concentrations of Peptide 1 were also measured in the same way. As a negative control, a reaction solution with the composition above to which neither Peptides 1 nor 2 was added was also measured in the same way.

[3] = target: T1, Aβ25-35; test: ThT fluorescence of the solutions administered to the mouse groups; type: biochemical; conditions: 0.5 μg/μL Aβ25-35 and 0.25 μg/μL Peptide 2 mixed in equal amounts, 37° C., day 11, vs Aβ25-35 solution, FIG. 3
Method: In parallel with the administration to the mice in each group, the fluorescence intensity was measured for the solutions administered to each group. Specifically, a mixed solution obtained by mixing 0.5 μg/μL Aβ25-35 and 0.25 μg/μL Peptide 2 in equal amounts, which was the same as that administered to the administration group, and a 0.5 μg/μL Aβ25-35 solution, which was the same as that administered to the negative control group, were each added in an amount of 100 μL per well, and 10 μL of 1 mmol/L ThT was further added to the well immediately before measurement. These reaction solutions were each reacted at 37° C., and the fluorescence intensity was measured as in Example 1 above.

[4] = test system: C57BL/6 mice; test: Y-maze (short-term memory assessment) test; type: in vivo; conditions: 2 μL of 0.5 μg/μL Aβ25-35 and 2 μL of 0.25 μg/μL Peptide 2 into hippocampal CA1; days 11, 27 and 39; vs negative control group (Aβ25-35 only), FIG. 4
Method: In this example, 2 μL of 0.5 μg/μL Aβ25-35 and 2 μL of 0.25 μg/μL Peptide 2 were directly administered using a micro syringe to the CA1 area of the hippocampus of the brain of the administration group of C57BL/6 mice (7 to 13 months old mice) (n=3). In a similar manner, 2 μL of 0.5 μg/μL Aβ25-35 was directly administered using a micro syringe to the CA1 area of the hippocampus of the brain of the negative control group of C57BL/6 mice (n=3). Neither 2 μL of Aβ25-35 nor Peptide 2 was administered to the positive control group of C57BL/6 mice (n=3). Each group was then given a Y-maze (short-term memory assessment) test on days 11, 27, and 39 after administration, and an object recognition test over 3 days starting from day 49. • Administration group (7 months old): Aβ25-35(+)/GSGFK(+) • Negative control group (7 months old): Aβ25-35(+)/GSGFK(−) • Positive control group (13 months old): Aβ25-35(−)/GSGFK(−)
The Y-maze test was conducted in a general manner under the following conditions. That is to say, mice were placed such that their noses faced the wall at an end of one particular arm among the three arms. The mice were allowed to move freely for 10 minutes, and their behavior was captured on a monitor of an analyzer (product name: Time YM1, manufactured by O'hara & Co., Ltd.) to calculate the alternation behavior rate (alternation behavior (%)).

[5] = test system: C57BL/6 mice; test: Object recognition test (ORT); type: in vivo; conditions: administration group Aβ25-35(+)/GSGFK(+), day 52 (test over 3 days from day 49), FIG. 6
Method: In this example, 2 μL of 0.5 μg/μL Aβ25-35 and 2 μL of 0.25 μg/μL Peptide 2 were directly administered using a micro syringe to the CA1 area of the hippocampus of the brain of the administration group of C57BL/6 mice (7 to 13 months old mice) (n=3). In a similar manner, 2 μL of 0.5 μg/μL Aβ25-35 was directly administered using a micro syringe to the CA1 area of the hippocampus of the brain of the negative control group of C57BL/6 mice (n=3). Neither 2 μL of Aβ25-35 nor Peptide 2 was administered to the positive control group of C57BL/6 mice (n=3). […]
The object recognition test (ORT) from day 49 was conducted as follows. […] For each group, the speed of movement of the mice in the cage was measured, as well as the percentage (%) of time they stayed in the center region of the cage (the inner region being at least 7.5 cm away from a side wall of the cage).
After one day, two identical objects were placed in the cage and the mice were allowed to explore freely for one hour (sample phase). […] Also, the approach time of the mice to each object was measured in each of the sample and test phases. The percentage of the exploration time for the object on the right side with respect to the total exploration time was then determined (100× right side exploration time/total exploration time (%)).

[6] = target: T2, Aβ25-35 aggregates (Homo sapiens, UniProt P05067); test: Dissociation of pre-formed Aβ25-35 aggregates (ThT fluorescence); type: biochemical; conditions: 40 μL of 10 mmol/L peptide added to 4000 μL reaction solution with aggregates of 0.1 mM Aβ25-35 (24 h, 37° C.); 4 hr vs 0 hr, FIG. 7
T2 construct: The Aβ25-35 is a peptide constituted by 11 amino acid residues consisting of the 25th to 35th amino acid residues
Method: A reaction solution with the following composition was prepared and incubated at 37° C. for 24 hours to form aggregates of Aβ25-35. After incubation, the fluorescence intensities of the reaction solution with the following composition to which Aβ25-35 was added and a reaction solution to which water was added instead of Aβ25-35 were measured as in Example 1.
Then, 40 μL of 10 mmol/L Peptide 1 or Peptide 2 was added to 4000 μL of the reaction solution in which the aggregates were formed (0 hr), the mixture was incubated at 37° C., and the change in fluorescence intensity over time was measured (n=3). As a control, a reaction solution to which water was added instead of Peptide 1 and Peptide 2 was also measured at 0 hr in the same way. Then, the percentage (%) of decrease in fluorescence intensity after 4 hr was obtained from the fluorescence intensity at 0 hr.

[7] = Peptide 2, with respect to 100 μmol/L Aβ25-35, 4 hours, FIG. 2(A)
[8] = Peptide 1, with respect to 100 μmol/L Aβ25-35, 8 hours, FIG. 2(B)

GSGFK [Peptide 2]
fluorescence intensity of the reaction solution after 8 and 24 hours [1]: did not increase after 8 and 24 hours | fluorescence intensity of the reaction solution 4 hours after incubation [1]: slightly increased 4 hours after incubation, but it was well below the negative control | fluorescence intensity compared with the negative control ([2]; Peptide 2, 100 μmol/L Aβ25-35, PBS, 4 hours after start of measurement, FIG. 2(A)): significantly reduced the fluorescence intensity | final concentration at which aggregation was inhibited in a particularly excellent manner [2, 7]: around 10 μmol/L | final concentration at which aggregation was more effectively inhibited [2, 7]: ≥ 10 µmol/L | final concentration at which aggregation was significantly inhibited sufficiently [2, 7]: ≥ 5 µmol/L | fluorescence intensity of the mixed solution on day 11 [3]: did not show an increase in fluorescence intensity | alternation behavior rate (short-term memory) [4]: short-term memory is maintained as with the positive control group | percentage of exploration time for the object on the right side, test phase compared with sample phase [5]: significant increase in the percentage of exploration time for the object on the right side in the test phase | decrease in fluorescence intensity 4 hours after peptide addition to pre-formed aggregates [6]: significant decrease in fluorescence intensity

GSGNR [Peptide 1]
fluorescence intensity of the reaction solution after 8 and 24 hours [1]: decreased significantly compared with the negative control after 8 and 24 hours | fluorescence intensity of the reaction solution 4 hours after incubation [1]: had increased 4 hours after incubation | fluorescence intensity compared with the negative control ([2]; Peptide 1, 100 μmol/L Aβ25-35, PBS, 8 hours after start of measurement, FIG. 2(B)): significantly reduced the fluorescence intensity | final concentration at which aggregation was inhibited in a particularly excellent manner [2, 8]: around 10 μmol/L | final concentration at which aggregation was significantly inhibited sufficiently [2, 8]: ≥ 1 µmol/L | decrease in fluorescence intensity 4 hours after peptide addition to pre-formed aggregates [6]: significant decrease in fluorescence intensity
